Laboratory results taken from patent US10149922B1, “Engineered collagen matrices for myocardial therapy” (The Board of Trustees of the Leland Stanford Junior …, priority 2012, dated 2018).

Key:
[1] = test system: FSTL1-induced proliferation of immature cardiomyocytes; experiment: Screen of signal transduction inhibitors on FSTL1-induced proliferation; assay type: cell-based; conditions: EMD StemSelect compound library
Procedure: (§1) Experiments were conducted to analyze the proliferative response of early cardiomyocytes to FSTL1. 7 days following FSTL1 treatment, we observed that a remarkable 50% of the differentially expressed transcripts are known targets of the JAK/STAT and interferon related (IFR) pathways.

[2] = test system: mESC-derived immature cardiomyocytes (mCM-d2); experiment: Number of α-actinin+ cardiomyocytes in mCM-d2 cultures; assay type: cell-based, mouse; conditions: 10 ng/ml, eight days of treatment
Procedure: (§2) H2B-mCherry EMCs were maintained in DMEM with 10% FBS and antibiotics/antimycotic. Myh6-Puro^r;Rex-Blast^r mESCs were generated by Lentiviral transduction and Blasticidin selection, and then cultured. For cardiac differentiation, ESCs were cultured in Iscove's Modified Dulbecco Media (IMDM) supplemented with 10% FBS, 2 mM glutamine, 4.5×10^−4 M monothioglycerol, 0.5 mM ascorbic acid, 200 ug/mL transferrin (Roche), 5% protein-free hybridoma media (PFHM-II, Invitrogen) and antibiotics/antimycotic and differentiated as either embryoid bodies (EBs) formation or monolayer. Puromycin was added at differentiation day 10 for two days to enrich cardiomyocyte. The cells were then trypsinized and plated as monolayer cardiomyocytes. Conditioned media were collected after 2 days culturing of confluent EMC cells and passed through 0.22 um filters (Millipore). Control conditioned media were prepared the same way without EMC cells. Recombinant Fstl1 was purchased from ADIPO BIOSCIENCE.
We utilized an epicardial/mesothelial cell line (EMC) to investigate the interaction between epicardium and myocardium.
We applied 10 ng/ml purified hFstl1 onto the mCM-d2 system of ESC-derived early cardiomyocytes, similarly to the coculture and conditioned media experiments described in FIG. 2.

[3] = test system: mESC-derived immature cardiomyocytes (mCM-d2); experiment: Q-RT-PCR of cardiac-specific markers in mCM-d2; assay type: cell-based, mouse; conditions: 10 ng/ml, eight days of treatment
Procedure: as §2
Total RNA was extracted with TRIzol (Invitrogen) and reverse transcribed to cDNA with QuantiTect Reverse Transcription Kit (Qiagen) according to the manufacturer's instructions. cDNA samples synthesized from 100 ng of total RNA were subjected to RT-QPCR with LightCycler 480 SYBR Green I Master kit (Roche) performed with LightCycler 480 Real-Time PCR System (Roche).

[4] = test system: mESC-derived immature cardiomyocytes (mCM-d2); experiment: Kinetic Image Cytometry of rhythmic calcium transients in mCM-d2; assay type: cell-based, mouse; conditions: 10 ng/ml, eight days of treatment, mCM-d2, KIC analysis
Procedure: as §2
Kinetic Image Cytometer from Vala was used as instructed to record intracellular calcium transient with Fluo4 NW calcium indicator (Life Science). Data was processed using Cyteseer (Vala).

[5] = test system: mCM-d2; experiment: phospho-Histone3 proliferation in mCM-d2; assay type: cell-based, mouse; conditions: mCM-d2 treated for 48 hrs
[6] = test system: Neonate Rat Ventricular Cardiomyocytes (NRVC); experiment: Cell cycle profile of neonate rat ventricular cardiomyocytes (flow cytometry); assay type: cell-based; conditions: NRVC treated for 24 hours
Procedure: Ventricular cardiomyocytes were isolated with neonatal rat cardiomyocyte isolation kit (Cellutron) and cultured at 37° C. with 5% CO2. In brief, ventricles were dissected from 1-2-d-old Hsd:SD rats (Sprage Dawley), then digested five times for 15 min each with the enzyme cocktail at 37° C. Cells were pooled, preplated for 90 min on an uncoated dish to remove fibroblasts, and plated on 1% gelatin-coated cell culture plastic dishes in high-serum media (DME/F12 [1:1], 0.2% BSA, 3 mM sodium-pyruvate, 0.1 mM ascorbic acid, 4 mg/liter transferrin, 2 mM L-glutamine, and 5 mg/liter ciprofloxacin supplemented with 10% horse serum and 5% FCS) at 3×10^5 cells/cm2. After 24 h, media was changed to low-serum medium (same but with 0.25% FCS) and cultured until use.
The cell cycle profile of cardiac cells was analyzed as described. In brief, cells were fixed for 1 h at 4° C. with 0.25% PFA and then permeabilized for 15 min at 37° C. with 0.2% Tween 20 before incubation with α-actinin and secondary antibodies (Alexa 488—conjugated anti-mouse Ig) diluted 1:100 in FACS buffer (PBS with 1% goat serum and 0.1% NaN3). Cells were then stained with 10 μg/ml propidium iodide in FACS buffer supplemented with 500 μg/ml of RNAase A. Flow cytometry was performed on BD FACSCanto. FlowJo and ModFit software were used to analyze the results.

[7] = test system: early cardiomyocytes; experiment: Whole transcriptome profiling of early cardiomyocytes after FSTL1 treatment; assay type: cell-based; conditions: 7 days following FSTL1 treatment
Procedure: In one approach, whole transcriptome profiling after long and short term treatment is used. Transcriptome profiling is a common approach to gain insight into signaling pathways through the analysis of pathway selective gene expression. Responsive cells selected in the previous experiments are incubated with FSTL1 for 24 hours (short-term) or 7 day (long-term). Transcripts are profiled using microarrays (Affymetrix). Candidate factors are then validated functionally using small molecule inhibitors (if available) and/or siRNA.
as §1

[8] = test system: mouse MI model; experiment: Route of FSTL1 delivery in the mouse MI model; assay type: in vivo; conditions: compared to epicardial-localized delivery
Description: Key variables, including time of delivery and the effectiveness following reperfusion. A second critical issue concerns the localized site of FSTL1 delivery. Systemic delivery was not effective in the mouse MI model, compared to epicardial-localized delivery. However, the present the epicardial biomaterial patch itself may provide an effective physical support that could synergize with a systemic FSTL1 delivery. FSTL1 must be delivered epicardial to be effective, and may done by impregnated into the collagen of the patch.

## C[C@H](NC(=O)/C(C#N)=C/c1cccc(Br)n1)c1ccccc1 [WP1066]
[1]
  effect on FSTL1-induced proliferation: blocked

B1: Fstl1: Secreted glycoprotein encoded by the FSTL1 gene (SEQ ID NO: 1, UniProt Q12841); recombinant protein purchased from ADIPO BIOSCIENCE (protein, listed as Homo sapiens)
chain: MWKRWLALALALVAVAWVRAEEELRSKSKICANVFCGAGRECAVTEKGEPTCLCIEQCKPHKRPVCGSNGKTYLNHCELHRDACLTGSKIQVDYDGHCKEKKSVSPSASPVVCYQSNRDELRRRIIQWLEAEIIPDGWFSKGSNYSEILDKYFKNFDNGDSRLDSSEFLKFVEQNETAINITTYPDQENNKLLRGLCVDALIELSDENADWKLSFQEFLKCLNPSFNPPEKKCALEDETYADGAETEVDCNRCVCACGNWVCTAMTCDGKNQKGAQTQTEEEMTRYVQELQKHQETAEKTKRVSTKEI
[2]
  increase in the number of cardiomyocytes: 4 fold
[3]
  increase in mRNA content of contractile proteins (including Myh6, Mlc2v, and Mlc2a): 2-3 folds
[4]
  increase in the number of cardiomyocytes displaying rhythmic calcium transient: 7-8 folds
[5]
  phospho-Histone3+ cells: significantly more
[6]
  percentage of cells in S/G2/M phase: significantly increased
[7]
  differentially expressed transcripts that are known targets of the JAK/STAT and interferon related (IFR) pathways: 50%
[8]
  efficacy of systemic delivery: not effective
